In US20250129140A1, “ANTI-HCMV ANTIBODIES AND ANTIGEN-BINDING FRAGMENTS THEREOF” (ICAHN SCHOOL OF MEDICINE AT MOUNT SINAI, priority 2021, published 2025) one finds Q1, percent of cells GFP- and Alexa Fluor 647+ and Q2, percent of cells GFP+ and Alexa Fluor 647+ data, which are given here for 1 substance.

The target of this experiment is MHC class I on ARPE-19 cells (Homo sapiens). Nature of the experiment: flow cytometry on ARPE-19 cells infected with AD169R (GFP reporter), 6 dpi, antibody 2 µg/mL, anti-mouse AF647 secondary.

For α-MHC-1 (W6/32) (antibody), the Q1, percent of cells GFP- and Alexa Fluor 647+ is 86.9%; the Q2, percent of cells GFP+ and Alexa Fluor 647+ was determined as 12.7%.
